Assay results from US6689362.

Experiments:
[1] = target: CD7 antigen (human) (UniProt P09564); assay: indirect immunofluorescence, flow cytometry on Jurkat cells
[2] = target: CD7 antigen (human) (UniProt P09564); assay: indirect immunofluorescence, flow cytometry on MOLT-3 cells
[3] = target: CD7 antigen (human) (UniProt P09564); assay: cell-based or functional assay
[4] = target: CD7 antigen (human) (UniProt P09564); assay: indirect immunofluorescence with FITC goat anti-mouse IgG on MOLT-3 cells, 10 µg/mL (50 nM) TXU-PAP

Chain of TXU-7-PAP immunotoxin (P10297 23-285): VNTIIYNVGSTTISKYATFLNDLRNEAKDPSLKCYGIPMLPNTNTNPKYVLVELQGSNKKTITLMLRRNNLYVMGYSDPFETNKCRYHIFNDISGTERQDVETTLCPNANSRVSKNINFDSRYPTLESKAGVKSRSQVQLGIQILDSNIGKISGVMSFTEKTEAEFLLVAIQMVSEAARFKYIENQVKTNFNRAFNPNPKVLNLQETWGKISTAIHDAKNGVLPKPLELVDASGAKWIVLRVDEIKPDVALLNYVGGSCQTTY

Substance | percent of cells stained [1] [%] | percent of cells stained [2] [%] | log kill of clonogenic MOLT-3 blasts, serial dilution clonogenic assay, at 1 µg/mL (=5 nM) [3] [logs] | percent of cells positive for cell-surface bound immunotoxin [4] [%]
monoclonal antibody TXU-7 | 96 | 99 | – | –
TXU-7-PAP immunotoxin (from UniProt P10297 23-285) | – | – | 2.8 to 3.7 | 98
